What was measured:
Assay in all cases: holdup assay
Design in all cases: key: below the threshold = too weak to quantify, mostly under pKd 3.1 to 4
Conditions in all cases: plain residues with an end cap or a label only (N-terminal biotin on a linker: ttds)
[1] = target: Q9P227
[2] = target: Q96JB8
[3] = target: Q96HC4
[4] = target: Q6ZWJ1
[5] = target: Q96SB3
[6] = target: T1, MPDZ_2, O75970
T1 sequence (O75970 252-347, limits assumed, looked up): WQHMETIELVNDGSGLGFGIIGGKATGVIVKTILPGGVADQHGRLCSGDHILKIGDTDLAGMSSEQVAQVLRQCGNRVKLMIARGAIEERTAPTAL

[7] = target: T2, NHERF1_1, O14745
T2 sequence (O14745 9-104, limits assumed, looked up): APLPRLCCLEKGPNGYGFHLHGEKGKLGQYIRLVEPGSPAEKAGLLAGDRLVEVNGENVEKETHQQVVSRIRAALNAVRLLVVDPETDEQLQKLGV

[8] = target: O43166
[9] = target: T3, PDLIM3, Q53GG5
T3 sequence (Q53GG5 1-94, limits assumed, looked up): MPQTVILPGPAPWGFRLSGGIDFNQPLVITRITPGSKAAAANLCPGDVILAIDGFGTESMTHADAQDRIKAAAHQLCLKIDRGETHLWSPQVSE

[10] = target: T4, GIPC1, O14908
T4 sequence (O14908 128-223, limits assumed, looked up): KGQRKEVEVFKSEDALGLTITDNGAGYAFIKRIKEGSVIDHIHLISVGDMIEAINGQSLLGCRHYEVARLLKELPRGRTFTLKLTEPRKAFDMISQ

[11] = target: O15021
[12] = target: LIMK1, P53667
[13] = target: Q13368
[14] = target: Q96JY6
[15] = target: T5, SHROOM2, Q13796
T5 sequence (Q13796 21-118, limits assumed, looked up): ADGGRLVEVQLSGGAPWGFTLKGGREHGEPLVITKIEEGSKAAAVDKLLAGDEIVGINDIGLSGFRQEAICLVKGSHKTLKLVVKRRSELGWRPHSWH

[16] = target: T6, MPDZ_7, O75970
T6 sequence (O75970 1146-1253, limits assumed, looked up): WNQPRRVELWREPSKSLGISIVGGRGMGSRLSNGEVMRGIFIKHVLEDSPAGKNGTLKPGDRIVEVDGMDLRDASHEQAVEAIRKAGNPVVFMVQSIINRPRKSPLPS

[17] = target: T7, SYNPO2L, Q9H987
T7 sequence (Q9H987 1-98, limits assumed, looked up): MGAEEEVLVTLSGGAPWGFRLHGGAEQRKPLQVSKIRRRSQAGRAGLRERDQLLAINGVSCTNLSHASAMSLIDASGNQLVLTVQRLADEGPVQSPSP

[18] = target: T8, MLLT4, P55196
T8 sequence (P55196 1002-1103, limits assumed, looked up): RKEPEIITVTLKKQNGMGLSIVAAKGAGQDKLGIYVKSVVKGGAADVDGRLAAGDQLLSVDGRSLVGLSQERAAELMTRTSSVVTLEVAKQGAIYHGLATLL

[19] = target: T9, TJP3_1, O95049
T9 sequence (O95049 6-103, limits assumed, looked up): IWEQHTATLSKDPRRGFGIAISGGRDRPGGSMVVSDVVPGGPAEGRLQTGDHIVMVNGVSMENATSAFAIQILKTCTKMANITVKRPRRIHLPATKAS

[20] = target: Q5TCQ9
[21] = target: T10, GRIP1_1, Q9Y3R0
T10 sequence (Q9Y3R0 48-146, limits assumed, looked up): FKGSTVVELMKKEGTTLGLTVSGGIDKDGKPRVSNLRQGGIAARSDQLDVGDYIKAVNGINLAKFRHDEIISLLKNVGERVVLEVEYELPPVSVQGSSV

[22] = target: T11, MAGI2_1, Q86UL8
T11 sequence (Q86UL8 12-111, limits assumed, looked up): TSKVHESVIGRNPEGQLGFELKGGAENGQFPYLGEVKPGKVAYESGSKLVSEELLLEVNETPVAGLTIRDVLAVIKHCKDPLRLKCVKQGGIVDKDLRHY

[23] = target: Q9UDY2
[24] = target: Q9NR12
[25] = target: T12, MPP1, Q00013
T12 sequence (Q00013 66-162, limits assumed, looked up): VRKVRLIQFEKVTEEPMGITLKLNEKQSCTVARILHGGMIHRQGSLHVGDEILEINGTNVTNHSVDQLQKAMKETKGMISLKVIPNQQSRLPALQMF

[26] = target: Q9H190
[27] = target: Q9C0E4

Chain of LIMK1, P53667 (P53667 155-268): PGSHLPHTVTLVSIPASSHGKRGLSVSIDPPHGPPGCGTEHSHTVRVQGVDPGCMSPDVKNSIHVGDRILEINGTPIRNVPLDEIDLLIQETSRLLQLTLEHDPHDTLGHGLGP

Question: With HIVEALETDV [PBK, Q96KB5] as the binder, how does the pKd [1] read?
Answer: below the threshold

Question: What about the pKd [2] of the same binder?
Answer: below the threshold

Question: What about the pKd [3] of the same binder?
Answer: below the threshold

Question: What about the pKd [4] of the same binder?
Answer: below the threshold

Question: And the pKd [5]?
Answer: below the threshold

Question: What about the pKd [6] of the same binder?
Answer: below the threshold

Question: What about the pKd [7] of the same binder?
Answer: below the threshold

Question: What about the pKd [8] of the same binder?
Answer: below the threshold

Question: What about the pKd [9] of the same binder?
Answer: below the threshold

Question: And the pKd [10]?
Answer: 5.37

Question: And the pKd [11]?
Answer: below the threshold

Question: And the pKd [12]?
Answer: 4.63

Question: What about the pKd [13] of the same binder?
Answer: below the threshold

Question: What about the pKd [14] of the same binder?
Answer: below the threshold

Question: And the pKd [15]?
Answer: below the threshold

Question: And the pKd [16]?
Answer: below the threshold

Question: And the pKd [17]?
Answer: below the threshold

Question: What about the pKd [18] of the same binder?
Answer: below the threshold

Question: What about the pKd [19] of the same binder?
Answer: below the threshold

Question: What about the pKd [20] of the same binder?
Answer: below the threshold

Question: And the pKd [21]?
Answer: below the threshold

Question: And the pKd [22]?
Answer: below the threshold

Question: And the pKd [23]?
Answer: below the threshold

Question: And the pKd [24]?
Answer: below the threshold

Question: And the pKd [25]?
Answer: below the threshold

Question: And the pKd [26]?
Answer: below the threshold

Question: What about the pKd [27] of the same binder?
Answer: below the threshold

Question: With MERLRVETDV [ARHGEF16, Q5VV41] as the binder, how does the pKd [1] read?
Answer: below the threshold

Question: What about the pKd [2] of the same binder?
Answer: below the threshold

Question: What about the pKd [3] of the same binder?
Answer: below the threshold

Question: And the pKd [4]?
Answer: below the threshold

Question: What about the pKd [5] of the same binder?
Answer: below the threshold

Question: And the pKd [6]?
Answer: below the threshold

Question: What about the pKd [7] of the same binder?
Answer: below the threshold

Question: What about the pKd [8] of the same binder?
Answer: below the threshold

Question: What about the pKd [9] of the same binder?
Answer: below the threshold

Question: What about the pKd [10] of the same binder?
Answer: 4.71

Question: What about the pKd [11] of the same binder?
Answer: below the threshold

Question: And the pKd [12]?
Answer: below the threshold

Question: And the pKd [13]?
Answer: below the threshold

Question: What about the pKd [14] of the same binder?
Answer: below the threshold

Question: What about the pKd [15] of the same binder?
Answer: below the threshold

Question: What about the pKd [16] of the same binder?
Answer: below the threshold

Question: What about the pKd [17] of the same binder?
Answer: below the threshold

Question: And the pKd [18]?
Answer: below the threshold

Question: What about the pKd [19] of the same binder?
Answer: below the threshold

Question: And the pKd [20]?
Answer: below the threshold

Question: What about the pKd [21] of the same binder?
Answer: below the threshold

Question: And the pKd [22]?
Answer: below the threshold

Question: And the pKd [23]?
Answer: below the threshold

Question: What about the pKd [24] of the same binder?
Answer: below the threshold

Question: What about the pKd [25] of the same binder?
Answer: 4.56

Question: And the pKd [26]?
Answer: below the threshold

Question: What about the pKd [27] of the same binder?
Answer: below the threshold

Question: What does the source list for NYWPGKETQL [SLCO1C1, Q9NYB5]?
Answer: pKd [1]: below the threshold; pKd [2]: below the threshold; pKd [3]: below the threshold; pKd [4]: below the threshold; pKd [5]: below the threshold; pKd [6]: below the threshold; pKd [7]: below the threshold; pKd [8]: below the threshold; pKd [9]: below the threshold; pKd [10]: below the threshold; pKd [11]: below the threshold; pKd [12]: below the threshold; pKd [13]: below the threshold; pKd [14]: below the threshold; pKd [15]: 4.98; pKd [16]: 5.2; pKd [17]: below the threshold; pKd [18]: below the threshold; pKd [19]: below the threshold; pKd [20]: below the threshold; pKd [21]: below the threshold; pKd [22]: below the threshold; pKd [23]: below the threshold; pKd [24]: below the threshold; pKd [25]: below the threshold; pKd [26]: below the threshold; pKd [27]: below the threshold

Question: For DPLTPSRSQL [DGKK, Q5KSL6], which pKd [1] is on record?
Answer: below the threshold

Question: And the pKd [2]?
Answer: below the threshold

Question: And the pKd [3]?
Answer: below the threshold

Question: What about the pKd [4] of the same binder?
Answer: below the threshold

Question: And the pKd [5]?
Answer: below the threshold

Question: And the pKd [6]?
Answer: below the threshold

Question: What about the pKd [7] of the same binder?
Answer: below the threshold

Question: What about the pKd [8] of the same binder?
Answer: below the threshold

Question: What about the pKd [9] of the same binder?
Answer: below the threshold

Question: What about the pKd [10] of the same binder?
Answer: below the threshold

Question: And the pKd [11]?
Answer: below the threshold

Question: What about the pKd [12] of the same binder?
Answer: 4.32

Question: What about the pKd [13] of the same binder?
Answer: below the threshold

Question: And the pKd [14]?
Answer: below the threshold

Question: What about the pKd [15] of the same binder?
Answer: below the threshold

Question: And the pKd [16]?
Answer: below the threshold

Question: And the pKd [17]?
Answer: below the threshold

Question: What about the pKd [18] of the same binder?
Answer: below the threshold

Question: And the pKd [19]?
Answer: below the threshold

Question: And the pKd [20]?
Answer: below the threshold

Question: What about the pKd [21] of the same binder?
Answer: below the threshold

Question: What about the pKd [22] of the same binder?
Answer: below the threshold

Question: What about the pKd [23] of the same binder?
Answer: below the threshold

Question: What about the pKd [24] of the same binder?
Answer: below the threshold

Question: What about the pKd [25] of the same binder?
Answer: below the threshold

Question: And the pKd [26]?
Answer: below the threshold

Question: And the pKd [27]?
Answer: below the threshold
